Assay results published in paper PMC4381951, “Musashi proteins are post-transcriptional regulators of the epithelial-luminal cell state”.

Assays:
Conditions in all cases: protein: recombinant; tags: SBP tag (N-terminal); GST removed by PreScission
MSI1 (Musashi1) [1] = target: T1, MSI1 (Musashi1) (UniProt Q61474 1-362); experiment: EMSA; mean of 2 gel shifts; EMSA buffer not given; RBNS: 25 mM Tris pH 7.5, 150 mM KCl, 3 mM MgCl2, 0.01% Tween, 1 mg/ml BSA, 1 mM DTT, 30 ug/ml poly I/C, room temperature
MSI1 (Musashi1) [2] = target: T1, MSI1 (Musashi1); experiment: EMSA; EMSA buffer not given; RBNS: 25 mM Tris pH 7.5, 150 mM KCl, 3 mM MgCl2, 0.01% Tween, 1 mg/ml BSA, 1 mM DTT, 30 ug/ml poly I/C, room temperature
MSI1 (Musashi1) [3] = target: T1, MSI1 (Musashi1); experiment: EMSA; no binding detected, Kd cannot be estimated; EMSA buffer not given; RBNS: 25 mM Tris pH 7.5, 150 mM KCl, 3 mM MgCl2, 0.01% Tween, 1 mg/ml BSA, 1 mM DTT, 30 ug/ml poly I/C, room temperature

T1 sequence (Q61474 whole entry): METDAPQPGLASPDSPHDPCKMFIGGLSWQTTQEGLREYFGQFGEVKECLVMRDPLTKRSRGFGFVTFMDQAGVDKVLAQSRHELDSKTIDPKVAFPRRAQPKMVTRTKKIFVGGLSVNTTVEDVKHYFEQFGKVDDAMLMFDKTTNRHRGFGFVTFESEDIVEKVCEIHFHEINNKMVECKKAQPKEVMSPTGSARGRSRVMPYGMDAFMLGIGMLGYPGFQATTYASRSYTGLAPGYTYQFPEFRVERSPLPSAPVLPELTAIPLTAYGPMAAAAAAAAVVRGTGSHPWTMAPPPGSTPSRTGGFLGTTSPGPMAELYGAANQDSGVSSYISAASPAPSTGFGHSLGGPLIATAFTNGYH

UGUCCAGUUAGAUCACUGUUUAGAU (ssRNA) [Jag1 3' UTR region 1] was tested, and the Kd (MSI1 (Musashi1) [1]) was 15 nM.

Binder UCAAAGUAGAAUUUUUGUAUAGUUAUGUAAAUAAU (ssRNA) [Jag1 3' UTR region 2] has a Kd (MSI1 (Musashi1) [1]) of 9 nM.

With UCAAAGUCCAAUUUUUGUAUCCUUAUGUAAAUAAU (ssRNA) [Jag1 3' UTR region 2 mutant] the Kd (MSI1 (Musashi1) [2]) was 649 nM.

UGUCCAGUUCCAUCACUGUUUCCAU (ssRNA) [Jag1 3' UTR region 1 mutant]: no binding (MSI1 (Musashi1) [3]).
